Test results reported in the supplement of paper PMC9732359.
± gives the uncertainty stated by the source.

experiment: protein stability index of a GFP-peptide fusion (yeast GPS) (PSI 1-4); higher = more stable; sorted into four equal gates, so the index is relative within each strain; settings: pdr5∆
Summary of the method: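 Plasmids isolated from each sorting gate were PCR-amplified and Illumina-sequenced, and barcodes assigned the reads to strains. The gates, four of equal size, were set by GFP/Cherry fluorescence ratio on mid-log cultures in leucine-free medium. These cultures were yeast carrying a pooled library of tiled 17-residue yeast protein peptides fused downstream of GFP on a plasmid that also expresses Cherry. The protein stability index is the sum of every gate's read frequency times its gate number.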

Sequence | protein stability index
MNNQPQGTNSVPNSIGN [SNF5] | 3.1 ± 0.096
MPNIELYLKVIPMDFIR [SSN2] | 2.14 ± 0.076
MPSRFTKTRKHRGHVSA [RPL28] | 2.19 ± 0.062
MQKPVPFVPVLDRRFEI [FAS1] | 1.95 ± 0.03
MQKQHEMKTQAAELQEK [SNF6] | 3 ± 0.17
MQQAQFQAQQAQQAQQA [SNF2] | 2.86 ± 0.039
MRDKSFGRTLASVTKEI [RPL12A] | 3.08 ± 0.12
MRFNIEIIADWIWDMNV [BRR2] | 2.12 ± 0.075
MSAPQAKILSQAPTELE [RPS7A] | 2.9 ± 0.068
MSDSIISFAAFILADAG [RPP1B] | 1.35 ± 0.049
MSDVEEVVEVQEETVVE [RPS12] | 3.36 ± 0.11
MSGILHCEDKDYKTAFS [RPN6] | 2.89 ± 0.071
MSGSLSRGNGGKKVLNK [POP1] | 2.48 ± 0.11
MSLINDAMVTRTPVIIS [SMD2] | 1.7 ± 0.066
MSNDPGNEVSSLYPPPP [MED7] | 2.92 ± 0.071
MSNTLFDDIFQVSEVDP [RPB8] | 2.77 ± 0.098
MSRSLANGIINVKEITE [SMC3] | 2.8 ± 0.073
MSVDIDKKASMIISGSR [ASC1] | 1.95 ± 0.12
MSVEPVVVIDGKGHLVG [RPL16A] | 3.42 ± 0.19
MSVSDNDQALIKVLLRQ [RET1] | 2.62 ± 0.069
MTAAVTSSNIVLETHES [RPT6] | 2.78 ± 0.057
MTAQQAPKWYPSEDVAA [RPL6B] | 1.7 ± 0.074
MTEDIEQKKTATEVTPQ [RPC19] | 3.2 ± 0.093
MTLLTDSLRKLYVDSES [MTW1] | 1.79 ± 0.11
MTVTFLILAGQVKVKGQ [YCS4] | 2.27 ± 0.074
MVAATKRRKTHIHKHVK [RET1] | 3.08 ± 0.15

Sequence | protein stability index
MVALISKKRKLVADGVF [RPS3] | 1.85 ± 0.18
MVCETDVPSEDDPTQLV [RPO21] | 3.24 ± 0.12
MVMREETIKSLEDPYKY [CSN9] | 1.66 ± 0.078
MVSTPELKKYMDKKILL [SMX2] | 3.62 ± 0.12
MYCRPAPSDFSENQRQI [GRR1] | 2.62 ± 0.084
NAASQQPTPRSASNTAK [GAL11] | 2.68 ± 0.055
NAEVVAGNIKCRNDAVN [BRR2] | 3.67 ± 0.16
NAIFLSSEQDYSTLKEL [YCG1] | 2.6 ± 0.11
NANTIETAKMIENMTKE [FAS2] | 3.35 ± 0.078
NAPAWFKLSSESVIEQI [RPS13] | 1.73 ± 0.054
NAPTFNPKYDTSNASMN [YAR002W/NUP60] | 3.08 ± 0.043
NCNIKDFKPPYIYSHVN [SWP82] | 2.77 ± 0.086
NDDFSEVFEFKTFNKIQ [BRR2] | 2.06 ± 0.061
NDDIEWMLSICVEWRLP [YJR042W/NUP85] | 1.53 ± 0.036
NDEVNEDEEDDNISSFH [YCG1] | 3.28 ± 0.12
NDILDELLCGMANKEWR [ECM29] | 1.47 ± 0.098
NDLDYDLIADTITNSSS [YML103C/NUP188] | 3.06 ± 0.067
NDNYSSDMENDNLLLNL [REC8] | 2.96 ± 0.12
NDRNPRLNENKKIGCYM [CSN12] | 3.22 ± 0.072
NDTSSGTNAMLPSPESL [SNF5] | 2.84 ± 0.049
NEESTNERLEINQEKPV [SIR4] | 3.32 ± 0.13
NEFQLQWGKYQTFGVDI [SWI1] | 3.06 ± 0.09
NEKIEKRSDLTGANSIY [UBP6] | 3.01 ± 0.062
NEKSQAEQEKAKNIISN [LRP1] | 2.83 ± 0.12
NELERNRKIYQFTLYDR [SMC3] | 2.45 ± 0.1
NELPDIEALYDDDTFSD [RPN2] | 3.35 ± 0.13

Sequence | protein stability index
NENDKIYLLFQSSGKLK [YDL116W/NUP84] | 2.5 ± 0.049
NENDLKTYNCLHEKYLT [SMC1] | 2.68 ± 0.053
NENPYNNGVSNLWKNIF [COR1] | 1.96 ± 0.12
NEPLSEIEIEGVMSLLQ [YAR002W/NUP60] | 3.32 ± 0.14
NEPSQSLISTRNDSTVN [BRN1] | 3.17 ± 0.086
NESKIKELNEKIQKLEE [RPN7] | 2.48 ± 0.11
NESWKSSFEKFNDSQAI [SRP72] | 2.96 ± 0.059
NEVKEWAVTLDTSRPDL [DSN1] | 3.15 ± 0.091
NEYVAKVSAREKSAYKF [FAS2] | 3.16 ± 0.073
NFLVFQGDVEQIAAQSP [SMC1] | 2.51 ± 0.092
NFNDIPPSVTLQDWQRE [YDL088C/ASM4] | 2.31 ± 0.054
NFNLKPTKTLTTKERKK [PRP8] | 2.54 ± 0.074
NFNSSAPIADDNHSGDA [DSN1] | 2.8 ± 0.1
NFNSSLHKRQQFSESTH [YJL039C/NUP192] | 3.14 ± 0.08
NFSNVTDLTNNSTDGAK [YIL149C/MLP2] | 3.15 ± 0.046
NGKEVPLAKIYLEENKS [MED1] | 3.27 ± 0.071
NGKTRTLENTLKAAFVA [RPS2] | 2.8 ± 0.14
NGNITYSEEPREKVRKL [FAS2] | 3.54 ± 0.18
NGQRSNSIRAREVENSV [SMC1] | 3.37 ± 0.058
NGQSLSPVRSDSADVPA [YMR153W/NUP53] | 3.15 ± 0.081
NGTTVWGTLQSVSPQMN [SMD1] | 3.01 ± 0.24
NGVPGQALDAVRMRLAQ [MED8] | 1.39 ± 0.063
NHITEFPSIPLPINGPI [RPC31] | 2.24 ± 0.048
NIDINNEDENIQLIKIL [YJL041W/NSP1] | 2.56 ± 0.071
NIDQEGSKQADRMAKYL [PGD1] | 3.35 ± 0.13
NIEERKEKIQHELGINI [BRR2] | 3.34 ± 0.075

Sequence | protein stability index
NIIASPLSAGFNYGKLP [SIN4] | 2.72 ± 0.086
NILSNKPGQNNRQQKKR [RRP6] | 3.06 ± 0.13
NINSTDKSIDTSSLQLY [YML103C/NUP188] | 2.67 ± 0.14
NIPFWKHVGFELLSMGN [SRP72] | 1.58 ± 0.085
NIPQQQQMQPPNSSANN [GAL11] | 2.9 ± 0.062
NIRNNIESQNLDLIPHS [SRB4] | 2.92 ± 0.046
NITKNLKTFNGSLALLK [POP4] | 3.19 ± 0.15
NIVQVFKKAAPSPISHV [RPB2] | 2.33 ± 0.071
NKEKSNSPTSFFDGSAS [YOR098C/NUP1] | 3.07 ± 0.057
NKFHKSIREDILECDLL [SIR2] | 2.91 ± 0.066
NKFMSIFLKRKDFTNKN [SRB8] | 2.2 ± 0.082
NKIMTNQINSFWSLHSS [NUT1] | 2.23 ± 0.15
NKKGRGHVKPVRCVNCS [RPS26A] | 2.98 ± 0.077
NKQYELFMKSLIENCKK [SWI1] | 2.85 ± 0.061
NKQYHQANSNLTLLERK [NUT1] | 2.77 ± 0.055
NKRWKVDIGGKQHAVLM [RRP4] | 3.25 ± 0.067
NKTSNNNNVTAVPAATP [SWI1] | 3.06 ± 0.046
NLAIVELVRLLIIDEIH [BRR2] | 2.38 ± 0.08
NLAPKLRNVFLGKCSRI [GRR1] | 2.43 ± 0.049
NLDSSITQDGKFAYKID [YMR129W/POM152] | 2.69 ± 0.064
NLEPLIAKLVAVLNVSP [NUT1] | 1.38 ± 0.066
NLERLRSDLQSKIQEIE [YIL149C/MLP2] | 3.37 ± 0.076
NLFSSTGFKGLLIELQA [SRB2] | 2.87 ± 0.069
NLGEYESAVKYALAAKD [RPN2] | 2.65 ± 0.09

same assay, conditions: san1∆

Sequence | protein stability index
MNHDPFSWGRPADSTYG [PRE4] | 3.15 ± 0.057
MNMFGGGMGGGMGGGMP [SRP54] | 1.69 ± 0.17
